Source: patent publication US20260034234A1 (AGENSYS, published 2026)

Assays:
[1] = target: T1, Rat 191P4D12 (on PC3 cells) (rat, UniProt D3ZET1 31-509); assay: FACS on PC3 cells expressing the rat ortholog
T1 construct: whole, on cells; also called PC3-rat-191P4D12; Rat ortholog
T1 sequence: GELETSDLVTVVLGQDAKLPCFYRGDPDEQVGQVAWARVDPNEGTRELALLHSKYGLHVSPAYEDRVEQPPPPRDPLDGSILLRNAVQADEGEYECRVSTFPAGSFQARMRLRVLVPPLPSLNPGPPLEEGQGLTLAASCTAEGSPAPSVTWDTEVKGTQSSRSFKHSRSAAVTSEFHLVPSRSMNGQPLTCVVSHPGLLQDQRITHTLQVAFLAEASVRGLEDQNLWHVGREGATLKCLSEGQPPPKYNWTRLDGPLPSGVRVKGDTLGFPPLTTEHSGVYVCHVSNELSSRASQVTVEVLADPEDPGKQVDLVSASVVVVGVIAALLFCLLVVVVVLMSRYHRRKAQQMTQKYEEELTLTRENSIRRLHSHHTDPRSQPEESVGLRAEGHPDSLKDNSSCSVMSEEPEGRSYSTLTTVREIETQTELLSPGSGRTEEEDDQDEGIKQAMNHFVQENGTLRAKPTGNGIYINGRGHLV
From the text: (§1) The 191P4D12 protein of human, cynomolgus, rat and murine origin was overexpressed recombinantly in a PC3 cell line to determine cross-reactivity of Ha22-2(2,4)6.1 to these orthologs. It was shown that Ha22-2(2,4)6.1 strongly cross-reacts with cynomolgus and rat orthologs of 191P4D12 (FIG. 23).

[2] = target: T2, Murine ortholog of 191P4D12, wild type (on PC3 cells) (mouse, UniProt Q8R007 31-508); assay: FACS on PC3 cells expressing the murine ortholog
T2 construct: whole, on cells; also called mouse 191P4D12
T2 sequence (looked up): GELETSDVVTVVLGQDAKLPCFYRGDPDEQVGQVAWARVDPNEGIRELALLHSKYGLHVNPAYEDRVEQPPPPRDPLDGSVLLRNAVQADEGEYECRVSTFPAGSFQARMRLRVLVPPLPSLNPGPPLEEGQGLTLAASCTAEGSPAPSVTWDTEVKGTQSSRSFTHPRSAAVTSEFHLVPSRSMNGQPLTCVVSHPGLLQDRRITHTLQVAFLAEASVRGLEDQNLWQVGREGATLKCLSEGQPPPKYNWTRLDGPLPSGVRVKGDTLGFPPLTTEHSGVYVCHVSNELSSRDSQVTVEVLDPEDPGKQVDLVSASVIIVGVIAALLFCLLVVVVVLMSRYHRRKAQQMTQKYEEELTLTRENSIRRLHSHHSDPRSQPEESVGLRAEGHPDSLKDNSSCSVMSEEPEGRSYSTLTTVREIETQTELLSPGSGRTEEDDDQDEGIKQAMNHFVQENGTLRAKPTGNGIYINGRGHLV
From the text: as §1

[3] = target: T3, 191P4D12 (human, wild type, on cells) (human, UniProt Q96NY8 32-510); assay: FACS titration on PC3 cells expressing 191P4D12
T3 construct: 510 amino acid ORF expressed on PC3, RAT/Rat1(E) cells and present in cancer cell lines and tumor specimens; also called human 191P4D12; wild-type 191P4D12
T3 sequence: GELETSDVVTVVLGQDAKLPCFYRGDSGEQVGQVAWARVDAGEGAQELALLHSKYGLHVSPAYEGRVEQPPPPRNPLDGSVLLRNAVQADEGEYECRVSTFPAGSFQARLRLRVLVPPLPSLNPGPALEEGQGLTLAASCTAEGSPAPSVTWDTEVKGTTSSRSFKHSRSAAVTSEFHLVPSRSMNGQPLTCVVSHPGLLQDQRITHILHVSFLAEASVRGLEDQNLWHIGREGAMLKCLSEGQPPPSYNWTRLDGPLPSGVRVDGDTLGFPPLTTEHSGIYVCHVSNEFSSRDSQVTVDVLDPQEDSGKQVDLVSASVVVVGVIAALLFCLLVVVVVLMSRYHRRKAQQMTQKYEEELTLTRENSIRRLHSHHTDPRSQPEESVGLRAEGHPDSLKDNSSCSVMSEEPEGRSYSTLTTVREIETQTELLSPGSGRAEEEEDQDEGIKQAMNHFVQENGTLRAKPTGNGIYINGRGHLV

[4] = target: T1, Rat 191P4D12 (on PC3 cells); assay: FACS titration on PC3 cells expressing the rat ortholog
[5] = target: T4, 191P4D12 (aa 1-31, 147-346), mFc-C1C2, fusion protein (human, UniProt Q96NY8 1-346); assay: Western blot of purified mFc fusion proteins (non-reduced SDS-PAGE), probed with Ha22-2(2,4)6.1-biotin and streptavidin-HRP
T4 construct: Expressed in 293T cells and purified; also called C1C2 fusion construct; not shown: murine Fc
T4 sequence: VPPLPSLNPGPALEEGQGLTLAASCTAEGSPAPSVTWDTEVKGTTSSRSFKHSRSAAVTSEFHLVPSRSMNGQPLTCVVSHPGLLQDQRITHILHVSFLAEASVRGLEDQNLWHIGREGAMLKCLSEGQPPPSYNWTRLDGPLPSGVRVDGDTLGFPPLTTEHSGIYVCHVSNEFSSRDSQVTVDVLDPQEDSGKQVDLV
Method: To further corroborate the results set forth in FIG. 10, a Western Blot analysis was performed. Briefly, the entire extracellular portion of 191P4D12 (full length), as well as specific domains set forth in Table VI were expressed in 293T cells as murine Fc fusion proteins and purified. Goat anti-mouse-HRP were used as a control.

B1: Ha22-2(2,4)6.1 MAb (antibody, human IgG1, kappa, V domains shown)
VH: EVQLVESGGGLVQPGGSLRLSCAASGFTFSSYNMNWVRQAPGKGLEWVSYISSSSSTIYYADSVKGRFTISRDNAKNSLSLQMNSLRDEDTAVYYCARAYYYGMDVWGQGTTVTVSS
VL: DIQMTQSPSSVSASVGDRVTITCRASQGISGWLAWYQQKPGKAPKFLIYAASTLQSGVPSRFSGSGSGTDFTLTISSLQPEDFATYYCQQANSFPPTFGGGTKVEIKR
notes: Fully human IgG1 kappa from XenoMouse; Used biotinylated in the Western blot; also called 191P4D12 MAb Ha22-2(2,4)6.1; Ha22-(2,4)6.1 MAb
B1 was tested, and the EC50 [1] was 0.44 nM, the EC50 [2] was 70.3 nM and the “EC50 (read off the curve)” value [3] was about 0.4 nM. The “EC50 (read off the curve)” value [4] was about 0.3 nM and the binding result [5] was “no binding”.
